Molecular target: ATP6V1D (UniProt Q9Y5K8)
Assay: in vitro binding, anti-Flag pull-down
Conditions: reference: wild-type ATP6V1B2-Flag; sites Y68

ATP6V1B2 (from UniProt P21281) ATP6V1B2(Y68F)-Flag
binding against the reference: weaker

Reference: paper PMC12087662
